Molecular target: T1, GST-HCMV-AD1 fusion protein (human cytomegalovirus (HCMV), UniProt P06473 552-635)
T1 construct: also called GST fused HCMV-AD1; not shown: GST (glutathione S-transferase) fusion partner
Test: BIAcore (SPR); antigen fixed to the sensor chip, antibody as analyte; GST protein as control

T1 sequence (P06473 552-635 limits assumed): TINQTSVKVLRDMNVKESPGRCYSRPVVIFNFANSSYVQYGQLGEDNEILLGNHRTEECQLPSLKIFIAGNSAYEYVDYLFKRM

B1: anti-HCMV antibody (G3D No. 9) (antibody, human IgG1, kappa, V domains shown)
VH: QVQLVESGGGMVQPGKSLRLSCAASGFTFSSYGMHWVRQAPGRGLEWVAIIWYDGDNTWYADSVKGRITISRDNSKNMLYLQMDSLRVEDTALYYCVRGGLGYFNGWDVDHWGQGTLVTVSS
VL: DVVMTQSPLSLPVTLGQPASISCRSSESLVYSDGNTYLNWFQQRPGQSPRRLISKVSNRDSGVPDRFSGSGSGTDFTLKISRVEAEDVGVYYCMQGSHWPPYTFGQGTKLEIKR
notes: also called G3D No. 9 antibody; anti-HCMV monoclonal antibody
B1 showed a Kd of 0.0116 nM.

From patent publication US20090004198A1 (published 2009)
